From patent US20190300577A1 (BETH ISRAEL DEACONESS MEDICAL CENTER, published 2019)
Ends that are not written are not given here.

Assays:
[1] = target: T1, recombinant mouse P-selectin Fc chimera (mouse, UniProt Q01102 42-709); test: Biacore; biotinylated glycopeptide captured on a streptavidin chip, mP-sel-Ig flowed over (trace shown at 20 µg/ml) [lower middle panel 'mP-sel-Ig (20 µg/ml)' (E in the legend]
T1 construct: also called murine P-selectin; P-sel-Ig; not shown: Ig (Fc) part of the chimera
T1 sequence (looked up): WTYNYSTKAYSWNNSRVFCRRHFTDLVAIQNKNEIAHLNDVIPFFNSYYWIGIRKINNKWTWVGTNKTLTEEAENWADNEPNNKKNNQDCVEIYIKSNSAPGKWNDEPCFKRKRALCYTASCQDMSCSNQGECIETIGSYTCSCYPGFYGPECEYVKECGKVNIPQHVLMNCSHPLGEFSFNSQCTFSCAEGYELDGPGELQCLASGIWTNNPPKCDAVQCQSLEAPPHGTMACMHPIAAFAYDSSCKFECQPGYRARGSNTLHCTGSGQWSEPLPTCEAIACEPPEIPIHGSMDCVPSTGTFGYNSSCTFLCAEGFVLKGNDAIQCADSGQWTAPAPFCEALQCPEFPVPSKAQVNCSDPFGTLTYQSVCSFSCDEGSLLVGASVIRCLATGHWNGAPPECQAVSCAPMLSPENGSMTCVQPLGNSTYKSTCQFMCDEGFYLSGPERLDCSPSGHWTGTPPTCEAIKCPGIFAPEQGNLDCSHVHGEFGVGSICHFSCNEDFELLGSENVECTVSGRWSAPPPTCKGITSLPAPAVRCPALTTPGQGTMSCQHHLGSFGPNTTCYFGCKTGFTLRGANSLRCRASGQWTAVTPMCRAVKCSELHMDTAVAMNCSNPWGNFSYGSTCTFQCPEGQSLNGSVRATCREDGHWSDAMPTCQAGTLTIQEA
From the text: (§1) GSnP-6 bound to E- and L-selectin with even lower apparent affinity.

[2] = target: T2, recombinant human P-selectin Fc chimera (human, UniProt P16109 42-771); test: Biacore; biotinylated glycopeptide captured on a streptavidin chip, hP-sel-Ig flowed over (trace shown at 20 µg/ml) [lower left panel 'hP-sel-Ig (20 µg/ml)' (D in the legend]
T2 construct: also called P-sel-Ig; recombinant Ig chimera of P-selectin
T2 sequence (P16109 42-771, change not shown): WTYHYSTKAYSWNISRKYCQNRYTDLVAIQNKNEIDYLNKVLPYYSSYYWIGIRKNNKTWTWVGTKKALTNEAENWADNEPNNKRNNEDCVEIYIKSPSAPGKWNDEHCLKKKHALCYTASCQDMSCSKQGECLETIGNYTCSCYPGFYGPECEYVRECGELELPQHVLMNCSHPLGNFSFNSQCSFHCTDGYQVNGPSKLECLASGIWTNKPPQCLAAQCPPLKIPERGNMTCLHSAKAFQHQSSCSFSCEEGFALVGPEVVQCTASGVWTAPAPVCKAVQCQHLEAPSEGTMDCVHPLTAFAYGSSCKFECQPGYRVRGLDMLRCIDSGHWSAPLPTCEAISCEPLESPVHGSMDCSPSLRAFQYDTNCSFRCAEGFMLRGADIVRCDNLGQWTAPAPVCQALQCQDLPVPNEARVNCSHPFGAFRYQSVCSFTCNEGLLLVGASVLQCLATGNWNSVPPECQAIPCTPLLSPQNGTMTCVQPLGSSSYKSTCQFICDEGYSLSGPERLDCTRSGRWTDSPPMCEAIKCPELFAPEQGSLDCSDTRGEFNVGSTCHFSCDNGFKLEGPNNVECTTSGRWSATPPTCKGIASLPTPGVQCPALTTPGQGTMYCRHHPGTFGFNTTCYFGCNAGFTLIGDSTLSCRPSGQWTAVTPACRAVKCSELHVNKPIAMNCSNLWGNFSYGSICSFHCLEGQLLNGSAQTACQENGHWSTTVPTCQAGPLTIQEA
From the text: as §1

EYEYLDYDFLPET(Core‑2 O‑glycan hexasaccharide with sLe^x)EPPE (peptide, UniProt Q14242 45-61, looked up, also: tyrosine O-sulfate, positions not given here, Synthetic glycosulfopeptide) [GSP-6]
Kd [1]: ~128 nM | Kd [2]: ~9 nM
